Experimental data as given in the supplement of paper PMC10724198.
± gives the standard deviation of the averaged measurements.

Experiments:
Saccharomyces cerevisiae [1] = test: protein stability index of tFT-peptide fusion (C-terminal peptide) (PSI (0-1 scale)); higher = more stable (slower turnover)
Experimental: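 MPS profiling in S. cerevisiae of the tFT-X12 degron library: putative degron peptides plus stable controls, 12 aa, fused to the C-terminus of a sfGFP-mCherry timer. Cells are FACS-sorted into 8 mCherry/sfGFP bins and deep-sequenced. PSI runs from 0 (unstable) to 1 (stable). Backgrounds are wild type, das1Δ and doa10Δ at 30 °C, and wild type, das1Δ, cdc34-1 and cdc53-1 at 37 °C; 2-3 technical replicates each.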

Saccharomyces cerevisiae [2] = test: as above; conditions: genetic background: wild type; temperature: 30 C
[3] = genetic background: cdc34-1, temperature: 37 C
[4] = genetic background: cdc53-1, temperature: 37 C
[5] = genetic background: das1 deletion, temperature: 30 C
[6] = genetic background: das1 deletion, temperature: 37 C
[7] = genetic background: doa10 deletion, temperature: 30 C
[8] = genetic background: wild type, temperature: 30 C
[9] = genetic background: wild type, temperature: 37 C
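Note: PSI is a weighted mean of sequencing reads over stability bins, variants kept only with over 10 reads, mCherry proximal and sfGFP distal, peptide attached via GGGS linker.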

Row | Sequence | protein stability index (Saccharomyces cerevisiae [1]; [3]) | protein stability index (Saccharomyces cerevisiae [1]; [4]) | protein stability index (Saccharomyces cerevisiae [1]; [5]) | protein stability index (Saccharomyces cerevisiae [1]; [6]) | protein stability index (Saccharomyces cerevisiae [1]; [7]) | protein stability index (Saccharomyces cerevisiae [1]; [8]) | protein stability index (Saccharomyces cerevisiae [1]; [9]) | protein stability index (Saccharomyces cerevisiae [2])
1 | SRRCGLFVFILF | 0.387 ± 0.042 | 0.378 ± 0.028 | 0.324 ± 0.041 | 0.49 ± 0.021 | 0.365 ± 0.008 | 0.277 ± 0.03 | 0.471 ± 0.006 | 0.392 ± 0.03
2 | SRSFFRRLLFCF | 0.642 ± 0.033 | 0.7705 ± 0.0056 | 0.679 ± 0.022 | 0.8141 ± 0.0018 | 0.3352 ± 0.0008 | 0.352 ± 0.0083 | 0.4821 ± 0.0037 | 0.396 ± 0.016
3 | SSAPPTLHTRPS | 0.642 ± 0.027 | 0.7092 ± 0.0049 | 0.662 ± 0.023 | 0.686 ± 0.012 | 0.664 ± 0.0071 | 0.6631 ± 0.0044 | 0.681 ± 0.0066 | 0.539 ± 0.059
4 | SSRRVVLPLLVA | 0.336 ± 0.057 | 0.402 ± 0.0094 | 0.309 ± 0.032 | 0.481 ± 0.0058 | 0.123 ± 0.011 | 0.136 ± 0.033 | 0.131 ± 0.027 | 0.202 ± 0.027
5 | SVHKYGFIKEIN | 0.732 ± 0.026 | 0.70852 ± 0.00021 | 0.668 ± 0.061 | 0.761 ± 0.023 | 0.473 ± 0.035 | 0.474 ± 0.046 | 0.667 ± 0.016 | 0.531 ± 0.047
6 | SVVLCRFVLRIF | 0.0423 ± 0.011 | 0.109 ± 0.055 | 0.136 ± 0.015 | 0.181 ± 0.039 | 0.0747 ± 0.0075 | 0.0735 ± 0.017 | 0.136 ± 0.038 | 0.128 ± 0.018
7 | SVVWIRFVGVRV | 0.472 ± 0.026 | 0.507 ± 0.022 | 0.322 ± 0.024 | 0.5291 ± 0.0048 | 0.285 ± 0.0075 | 0.328 ± 0.016 | 0.499 ± 0.0089 | 0.418 ± 0.0043
8 | SWFNLLSILPRD | 0.699 ± 0.022 | 0.7053 ± 0.0039 | 0.7 ± 0.088 | 0.784 ± 0.022 | 0.714 ± 0.029 | 0.683 ± 0.019 | 0.736 ± 0.045 | 0.7305 ± 0.0018
9 | SWIKRYEITCIL | 0.543 ± 0.033 | 0.568 ± 0.026 | 0.424 ± 0.044 | 0.5973 ± 0.0036 | 0.363 ± 0.0093 | 0.39 ± 0.0099 | 0.492 ± 0.027 | 0.478 ± 0.015
10 | SWWISKWVGLNC | 0.705 ± 0.0095 | 0.778 ± 0.01 | 0.636 ± 0.013 | 0.7821 ± 0.0033 | 0.367 ± 0.0053 | 0.402 ± 0.043 | 0.6358 ± 0.0049 | 0.52 ± 0.034
11 | SYMWLVEVLLFI | 0.229 ± 0.0074 | 0.306 ± 0.0063 | 0.196 ± 0.028 | 0.386 ± 0.019 | 0.173 ± 0.012 | 0.189 ± 0.012 | 0.33 ± 0.0059 | 0.264 ± 0.038
12 | SYVFEFIVSVVF | 0.208 ± 0.016 | 0.347 ± 0.011 | 0.253 ± 0.03 | 0.373 ± 0.015 | 0.23 ± 0.0064 | 0.255 ± 0.014 | 0.341 ± 0.016 | 0.315 ± 0.0044
13 | SYVVVFVIFCVG | 0.1826 ± 0.00046 | 0.281 ± 0.028 | 0.206 ± 0.03 | 0.3424 ± 0.0014 | 0.173 ± 0.0049 | 0.214 ± 0.015 | 0.301 ± 0.0081 | 0.224 ± 0.099
14 | TDFICLLWLLHW | 0.552 ± 0.035 | 0.535 ± 0.058 | 0.422 ± 0.02 | 0.5698 ± 0.0043 | 0.3864 ± 0.0017 | 0.41 ± 0.032 | 0.535 ± 0.014 | 0.565 ± 0.12
15 | TFRVRRQKNRNM | 0.628 ± 0.021 | 0.692 ± 0.039 | 0.631 ± 0.022 | 0.725 ± 0.013 | 0.0838 ± 0.015 | 0.099 ± 0.013 | 0.217 ± 0.012 | 0.236 ± 0.012
16 | TLFSFLLVFVFG | 0.209 ± 0.0076 | 0.315 ± 0.0035 | 0.228 ± 0.035 | 0.386 ± 0.0047 | 0.185 ± 0.019 | 0.206 ± 0.031 | 0.35 ± 0.0049 | 0.411 ± 0.017
17 | TLLMVSMTVRPL | 0.3005 ± 0.00077 | 0.379 ± 0.02 | 0.274 ± 0.022 | 0.411 ± 0.011 | 0.26 ± 0.0094 | 0.272 ± 0.022 | 0.398 ± 0.036 | 0.38 ± 0.0051
18 | TPPLPTTPTLNS | 0.641 ± 0.022 | 0.713 ± 0.022 | 0.718 ± 0.027 | 0.703 ± 0.021 | 0.722 ± 0.025 | 0.71 ± 0.011 | 0.684 ± 0.021 | 0.732 ± 0.025
19 | TPRQYVVSLSLC | 0.579 ± 0.027 | 0.657 ± 0.033 | 0.587 ± 0.039 | 0.703 ± 0.015 | 0.131 ± 0.0045 | 0.123 ± 0.0062 | 0.227 ± 0.0063 | 0.19 ± 0.067
